Assay results taken from publication PMC11101478, “Structural mechanism of bacteriophage lambda tail’s interaction with the bacterial receptor” (Nature Communications, 2024).

B1: gpI (bacteriophage lambda, in the purified tail) (natural protein)
chain: MAATHTLPLASPGMARICLYGDLQRFGRRIDLRVKTGAEAIRALATQLPAFRQKLSDGWYQVRIAGRDVSTSGLTAQLHETLPDGAVIHIVPRVAGAKSGGVFQIVLGAAAIAGSFFTAGATLAAWGAAIGAGGMTGILFSLGASMVLGGVAQMLAPKARTPRIQTTDNGKQNTYFSSLDNMVAQGNVLPVLYGEMRVGSRVVSQEISTADEGDGGQVVVIGR
notes: gpI of bacteriophage lambda: unresolved N-terminal domain, helices H1 and H2, plug domain (159-175), beta-strands joined by loops; in the open structure only residues from 167 onward are seen; Three units in the tail tip; source: E. coli BL21 (DE3) pLysS, as part of the purified lambda tail
B2: gpM (bacteriophage lambda tail protein, in the purified tail) (natural protein)
chain: MKTFRWKVKPGMDVASVPSVRKVRFGDGYSQRAPAGLNANLKTYSVTLSVPREEATVLESFLEEHGGWKSFLWTPPYEWRQIKVTCAKWSSRVSMLRVEFSAEFEQVVN
notes: Tail protein gpM of bacteriophage lambda; also called gpM ring; gpM hexamer; source: E. coli BL21 (DE3) pLysS, as part of the purified lambda tail
B3: Shigella sonnei 3070 LamB (receptor, UniProt Q3YUU9 26-446, looked up)
chain: VDFHGYARSGIGWTGSGGEQQCFQTTGAQSKYRLGNECETYAELKLGQEVWKEGDKSFYFDTNVAYSVAQQNDWEATDPAFREANVQGKNLIEWLPGSTIWAGKRFYQRHDVHMIDFYYWDISGPGAGLENIDVGFGKLSLAATRSSEAGGSSSFASNNIYDYTNETANDVFDVRLAQMEINPGGTLELGVDYGRANLRDNYRLVDGASKDGWLFTAEHTQSVLKGFNKFVVQYATDSMTSQGKGLSQGSGVAFDNEKFAYNINNNGHMLRILDHGAISMGDNWDMMYVGMYQDINWDNDNGTKWWTVGIRPMYKWTPIMSTVMEIGYDNVESQRTGDKNNQYKITLAQQWQAGDSIWSRPAIRVFATYAKWDEKWGYDYNGDSKVNPNYGKAVPADFNGGSFGRGDSDEWTFGAQMEIWW
notes: LamB (maltoporin) of Shigella sonnei 3070; own N-terminal signal peptide replaced by the OMPG signal peptide, Twin-Strep-tag after the signal peptide; differs from E. coli LamB in seven amino acids within the 381-390 region; Used in 0.02% DDM for BLI and for the gpJ713 complex, and in an MSP2N2 nanodisc (E. coli polar lipids) for the tail complex; also called ssLamB; LamB from Shigella sonnei …
B4: gpJ713 (C-terminal truncation of bacteriophage lambda gpJ, starting from residue 713) (domain or fragment, UniProt P03749 713-1132, looked up)
chain: APAAPSRIELTPGYFQITATPHLAVYDPTVQFEFWFSEKQIADIRQVETSTRYLGTALYWIAASINIKPGHDYYFYIRSVNTVGKSAFVEAVGRASDDAEGYLDFFKGKITESHLGKELLEKVELTEDNASRLEEFSKEWKDASDKWNAMWAVKIEQTKDGKHYVAGIGLSMEDTEEGKLSQFLVAANRIAFIDPANGNETPMFVAQGNQIFMNDVFLKRLTAPTITSGGNPPAFSLTPDGKLTAKNADISGSVNANSGTLSNVTIAENCTINGTLRAEKIVGDIVKAASAAFPRQRESSVDWPSGTRTVTVTDDHPFDRQIVVLPLTFRGSKRTVSGRTTYSMCYLKVLMNGAVIYDGAANEAVQVFSRIVDMPAGRGNVILTFTLTSTRHSADIPPYTFASDVQVMVIKKQALGISVV
notes: holds FNIIIs, AHS, CSF and RBD; Trimer (C3 symmetry in the closed state map); also called central tail fiber; His-tagged gpJ713; source: E. coli BL21 (DE3), purified (nickel gravity column, gel filtration); not shown: 6xHis, N-terminal, kept
B5: gpL (bacteriophage lambda, in the purified tail) (natural protein)
chain: MQDIRQETLNECTRAEQSASVVLWEIDLTEVGGERYFFCNEQNEKGEPVTWQGRQYQPYPIQGSGFELNGKGTSTRPTLTVSNLYGMVTGMAEDMQSLVGGTVVRRKVYARFLDAVNFVNGNSYADPEQEVISRWRIEQCSELSAVSASFVLSTPTETDGAVFPGRIMLANTCTWTYRGDECGYSGPAVADEYDQPTSDITKDKCSKCLSGCKFRNNVGNFGGFLSINKLSQ
notes: gpL of bacteriophage lambda; consists of HDI and 4Fe-4S domains; Three units in the tail tip; also called baseplate hub protein; source: E. coli BL21 (DE3) pLysS, as part of the purified lambda tail
B6: gpJ (bacteriophage lambda tip protein, in the purified tail) (natural protein)
chain: MGKGSSKGHTPREAKDNLKSTQLLSVIDAISEGPIEGPVDGLKSVLLNSTPVLDTEGNTNISGVTVVFRAGEQEQTPPEGFESSGSETVLGTEVKYDTPITRTITSANIDRLRFTFGVQALVETTSKGDRNPSEVRLLVQIQRNGGWVTEKDITIKGKTTSQYLASVVMGNLPPRPFNIRMRRMTPDSTTDQLQNKTLWSSYTEIIDVKQCYPNTALVGVQVDSEQFGSQQVSRNYHLRGRILQVPSNYNPQTRQYSGIWDGTFKPAYSNNMAWCLWDMLTHPRYGMGKRLGAADVDKWALYVIGQYCDQSVPDGFGGTEPRITCNAYLTTQRKAWDVLSDFCSAMRCMPVWNGQTLTFVQDRPSDKTWTYNRSNVVMPDDGAPFRYSFSALKDRHNAVEVNWIDPNNGWETATELVEDTQAIARYGRNVTKMDAFGCTSRGQAHRAGLWLIKTELLETQTVDFSVGAEGLRHVPGDVIEICDDDYAGISTGGRVLAVNSQTRTLTLDREITLPSSGTALISLVDGSGNPVSVEVQSVTDGVKVKVSRVPDGVAEYSVWELKLPTLRQRLFRCVSIRENDDGTYAITAVQHVPEKEAIVDNGAHFDGEQSGTVNGVTPPAVQHLTAEVTADSGEYQVLARWDTPKVVKGVSFLLRLTVTADDGSERLVSTARTTETTYRFTQLALGNYRLTVRAVNAWGQQGDPASVSFRIAAPAAPSRIELTPGYFQITATPHLAVYDPTVQFEFWFSEKQIADIRQVETSTRYLGTALYWIAASINIKPGHDYYFYIRSVNTVGKSAFVEAVGRASDDAEGYLDFFKGKITESHLGKELLEKVELTEDNASRLEEFSKEWKDASDKWNAMWAVKIEQTKDGKHYVAGIGLSMEDTEEGKLSQFLVAANRIAFIDPANGNETPMFVAQGNQIFMNDVFLKRLTAPTITSGGNPPAFSLTPDGKLTAKNADISGSVNANSGTLSNVTIAENCTINGTLRAEKIVGDIVKAASAAFPRQRESSVDWPSGTRTVTVTDDHPFDRQIVVLPLTFRGSKRTVSGRTTYSMCYLKVLMNGAVIYDGAANEAVQVFSRIVDMPAGRGNVILTFTLTSTRHSADIPPYTFASDVQVMVIKKQALGISVV
notes: Tip protein gpJ of bacteriophage lambda, 1132 residues: hub domains (HDII-ins1, HDII-ins2, HDII, HDIII, HDIV, OB), FNIII-1, FNIII-2, AHS, CSF, RBD; also called baseplate hub protein; central tail fiber protein; source: E. coli BL21 (DE3) pLysS, as part of the purified lambda tail

What was measured:
[1] = biological target: B6; experiment: cryo-EM structure; purified lambda tail mixed with ssLamB in MSP2N2 nanodisc, room temperature 50 min, nickel column and Superose 6 Increase; open state of the tail; settings: both partners purified
[2] = biological target: the molecule itself; experiment: as above
[3] = biological target: B5; experiment: as above; settings: both partners purified
E. coli LamB A384S = biological target: T1, E. coli LamB A384S (E. coli, UniProt P02943 26-446, A384S); experiment: BLI; His-tagged gpJ713 (2 ug/mL) captured on Ni-NTA sensors; five concentrations of Twin-Strep-tagged LamB in lysis buffer with 0.02% DDM; dissociation in the same buffer; settings: both partners purified
T1 construct: LamB (maltoporin) of E. coli with the single-point mutation A384S; the text says A384S; also called ecLamB A384S; source: E. coli BL21 (DE3), isolated from the outer membrane in DDM, purified (Strep-Tactin XT, gel filtration); not shown: Twin-Strep-tag, N-terminal, kept

E. coli LamB = biological target: T2, E. coli LamB (E. coli, UniProt P02943 26-446); experiment: as above; settings: both partners purified
T2 construct: LamB (maltoporin) of E. coli; own N-terminal signal peptide replaced by the OMPG signal peptide, Twin-Strep-tag after the signal peptide; also called ecLamB; E. coli's LamB; source: E. coli BL21 (DE3), isolated from the outer membrane in DDM, purified (Strep-Tactin XT, gel filtration); not shown: Twin-Strep-tag, N-terminal, kept

[4] = biological target: the molecule itself; experiment: cryo-EM structure; gpJ713 alone, closed state; C3 symmetry; map at 2.76 A

## B1
[1]
  binding result: binds

## B2
[2]
  stoichiometry N: 6
[3]
  binding result: binds
[1]
  binding result: binds

## B3
[2]
  stoichiometry N: 3

## B4
E. coli LamB A384S
  binding result: binds
E. coli LamB
  Kd: 1.76 nM
[4]
  stoichiometry N: 3

## B5
[1]
  binding result: binds

## B6
[2]
  stoichiometry N: 3
